# Reference: PMC11191887, “Abstracts From the First Annual Research Day Hosted by the Michigan State University College of Osteopathic Medicine, Novi, Michigan, May 15, 2023” (Spartan Medical Research Journal, 2024)
# Molecular target: T1, House dust mite allergen Der p 2 (Dermatophagoides pteronyssinus, UniProt P49278)
# T1 construct: Der p 2, major allergen of the house dust mite Dermatophagoides pteronyssinus; The structure is said to show monomeric Der p 2; No PDB id is printed in the abstract; source: Pichia pastoris, purified
# T1 sequence (P49278 18-146): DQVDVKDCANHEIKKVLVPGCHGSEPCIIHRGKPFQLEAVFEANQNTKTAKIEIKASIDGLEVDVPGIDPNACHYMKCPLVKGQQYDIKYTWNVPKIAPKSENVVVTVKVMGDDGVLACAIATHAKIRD
# Assay: crystal structure; purified 4C8 Fab and Der p 2 mixed in a 1:1 molar ratio for crystallization; X-ray, 3.0 Å
# Conditions: both partners purified
binder,measurement,value
"human-derived IgE mAb 4C8 Fab (Fab, V domains shown, Fab of a human IgE mAb isolated from hybridomas obtained from a house dust mite allergic patient; also called hIgE mAb 4C8 Fab; source: CHO cells, purified) VH: EVQLVESGGGLVQPGGSLRLSCAASGFTFSSYAIHWVRQAPGKGLEWVSGLSGGGGDTDYADSVKGRLTISRDNSKKTLFLEMNNLRPEDTAIYYCAKLTGYGSTPGSYMDVWGKGTTVSVSS VL: SFELTQPPSVSVSPGQTASITCSGDKLGDIYASWYQQKPGQSPVVVIFQDNKRPSGVPERFSGSNSGNTATLTISGTQALDEADYYCQAWDTSTSVFGTGTKVTVL",stoichiometry N,2
